Molecular target: human FcRn (FCGRT heavy chain and B2M light chain) expressed on MDCK-hFcRn cells (human) (UniProt P55899)
Assay: cell-based or functional assay

Sequence of UniProt P55899 (P55899 24-365, chain 1 of 2): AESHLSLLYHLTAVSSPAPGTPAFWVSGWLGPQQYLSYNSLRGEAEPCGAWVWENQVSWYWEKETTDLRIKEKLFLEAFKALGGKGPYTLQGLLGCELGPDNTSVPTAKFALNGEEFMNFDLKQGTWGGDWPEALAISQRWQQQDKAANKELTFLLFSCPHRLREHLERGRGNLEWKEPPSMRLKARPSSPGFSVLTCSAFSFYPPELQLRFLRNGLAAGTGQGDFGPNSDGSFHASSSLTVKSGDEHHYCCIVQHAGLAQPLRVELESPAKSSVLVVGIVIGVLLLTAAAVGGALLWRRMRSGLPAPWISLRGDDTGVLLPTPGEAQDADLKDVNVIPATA
Sequence of UniProt P55899 (P61769 21-119, chain 2 of 2, further chain): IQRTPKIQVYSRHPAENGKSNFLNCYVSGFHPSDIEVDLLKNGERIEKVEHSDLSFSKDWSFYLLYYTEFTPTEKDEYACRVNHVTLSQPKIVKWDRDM

Substance anti-gD HAHQ (antibody) has a recycling output of 0.6 ng/mL.

With anti-gD YTE (antibody) the recycling output was 1.9 ng/mL.

From patent publication US20240085404A1
